Patent US6548641 (MAX PLANCK GESELLSCHAFT ZUR FORDERUNG DER WISSENSCHAFTEN E V, dated 2003)

Biological target: T1, epidermal growth factor receptor (EGF-R) (UniProt P00533 25-1210)
T1 construct: also called EGF receptor
Assay: co-immunoprecipitation with mAb 108.1 from 293 transfectants, immunoblot with anti-PTP antisera
Method: To standardize the experimental parameters, three chimeric RPTKs having EGF-R extracellular domains were tested (HER1-2, EK-R, EP-R) (Seedorf, K. et al., *J. Biol Chem.* 266:12424 (1991)), as was EGF-R itself (FIG. 8).
The precipitates were extensively washed, boiled in SDS sample buffer, and analyzed by 7.5% SDS-PAGE.

- binding result: no binding
B1: PTP 1C protein tyrosine phosphatase (mouse) (enzyme)
chain: not shown
notes: Overexpressed transiently in human 293 cells
